According to patent US20100260668A1 (published 2010):

B1: DVD443 (bispecific antibody, human IgG1, kappa)
heavy: not shown
light: DIVMTQSPDSLAVSLGERATISCRASESVDNYGISFMKWFQQKPGQPPKLLIYAASNQGSGVPDRFSGSGSGTDFTLTISSLQAEDVAVYYCQQSKEVPWTFGGGTKVEIKRTVAAPDIQMTQSPSSLSASVGDRVTITCRASQDVSTAVAWYQQKPGKAPKLLIYSASFLYSGVPSRFSGSGSGTDFTLTISSLQPEDFATYYCQQSYTTPPTFGQGTKVEIKRTVAAPSVFIFPPSDEQLKSGTASVVCLLNNFYPREAKVQWKVDNALQSGNSQESVTEQDSKDSTYSLSSTLTLSKADYEKHKVYACEVTHQGLSSPVTKSFNRGEC
notes: HC linker short, LC linker short; also called DVD-Ig DVD443
B2: DVD449 (bispecific antibody, human IgG1, kappa)
heavy: not shown
light: DIVMTQSPDSLAVSLGERATISCRASESVDNYGISFMKWFQQKPGQPPKLLIYAASNQGSGVPDRFSGSGSGTDFTLTISSLQAEDVAVYYCQQSKEVPWTFGGGTKVEIKRTVAAPSVFIFPPDIQMTQSPSSLSASVGDRVTITCRASQDVSTAVAWYQQKPGKAPKLLIYSASFLYSGVPSRFSGSGSGTDFTLTISSLQPEDFATYYCQQSYTTPPTFGQGTKVEIKRTVAAPSVFIFPPSDEQLKSGTASVVCLLNNFYPREAKVQWKVDNALQSGNSQESVTEQDSKDSTYSLSSTLTLSKADYEKHKVYACEVTHQGLSSPVTKSFNRGEC
notes: HC linker long, LC linker long; also called DVD-Ig DVD449
B3: DVD471 (bispecific antibody, human IgG1, kappa, L234A L235A)
heavy: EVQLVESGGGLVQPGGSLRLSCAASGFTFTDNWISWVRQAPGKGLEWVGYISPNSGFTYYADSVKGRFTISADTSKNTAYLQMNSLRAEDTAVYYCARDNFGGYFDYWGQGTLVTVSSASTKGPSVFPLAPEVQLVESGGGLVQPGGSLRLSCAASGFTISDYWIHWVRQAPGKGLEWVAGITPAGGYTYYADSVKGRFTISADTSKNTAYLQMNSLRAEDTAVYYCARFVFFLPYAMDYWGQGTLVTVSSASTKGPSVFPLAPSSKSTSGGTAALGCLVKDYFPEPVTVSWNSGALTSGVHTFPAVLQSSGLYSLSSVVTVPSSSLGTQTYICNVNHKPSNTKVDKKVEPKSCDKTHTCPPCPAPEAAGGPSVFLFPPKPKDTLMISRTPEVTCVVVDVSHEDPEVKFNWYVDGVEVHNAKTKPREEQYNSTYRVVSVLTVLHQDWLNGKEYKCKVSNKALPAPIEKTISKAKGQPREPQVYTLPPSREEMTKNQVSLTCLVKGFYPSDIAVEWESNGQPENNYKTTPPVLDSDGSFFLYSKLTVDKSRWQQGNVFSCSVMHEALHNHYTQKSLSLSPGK
light: DIQMTQSPSSLSASVGDRVTITCRASQDVSTAVAWYQQKPGKAPKLLIYSASFLYSGVPSRFSGSGSGTDFTLTISSLQPEDFATTYYCQQSYTGTVTFGQGTKVEIKRTVAAPSVFIFPPDIQMTQSPSSLSASVGDRVTITCRASQDVSTAVAWYQQKPGKAPKLLIYSASFLYSGVPSRFSGSGSGTDFTLTISSLQPEDFATYYCQQSYTTPPTFGQGTKVEIKRTVAAPSVFIFPPSDEQLKSGTASVVCLLNNFYPREAKVQWKVDNALQSGNSQESVTEQDSKDSTYSLSSTLTLSKADYEKHKVYACEVTHQGLSSPVTKSFNRGEC
notes: HC linker long, LC linker long; also called DVD-Ig DVD471
B4: DVD483 (bispecific antibody, human IgG1, kappa)
heavy: not shown
light: DIQMTQSPSSLSASVGDRVTITCRASQDVSTAVAWYQQKPGKAPKLLIYSASFLYSGVPSRFSGSGSGTDFTLTISSLQPEDFATTYYCQQSYTGTVTFGQGTKVEIKRTVAAPSVFIFPPDIQMTQSPSSLSASVGDRVTITCRASQDVSTAVAWYQQKPGKAPKLLIYSASFLYSGVPSRFSGSGSGTDFTLTISSLQPEDFATYYCQQSYTTPPTFGQGTKVEIKRTVAAPSVFIFPPSDEQLKSGTASVVCLLNNFYPREAKVQWKVDNALQSGNSQESVTEQDSKDSTYSLSSTLTLSKADYEKHKVYACEVTHQGLSSPVTKSFNRGEC
notes: HC linker short, LC linker long; also called DVD-Ig DVD483
B5: DVD465 (bispecific antibody, human IgG1, kappa)
heavy: not shown
light: DIQMTQSPSSLSASVGDRVTITCRASQDVSTAVAWYQQKPGKAPKLLIYSASFLYSGVPSRFSGSGSGTDFTLTISSLQPEDFATTYYCQQSYTGTVTFGQGTKVEIKRTVAAPDIQMTQSPSSLSASVGDRVTITCRASQDVSTAVAWYQQKPGKAPKLLIYSASFLYSGVPSRFSGSGSGTDFTLTISSLQPEDFATYYCQQSYTTPPTFGQGTKVEIKRTVAAPSVFIFPPSDEQLKSGTASVVCLLNNFYPREAKVQWKVDNALQSGNSQESVTEQDSKDSTYSLSSTLTLSKADYEKHKVYACEVTHQGLSSPVTKSFNRGEC
notes: HC linker short, LC linker short; also called DVD-Ig DVD465
B6: DVD477 (bispecific antibody, human IgG1, kappa, L234A L235A)
heavy: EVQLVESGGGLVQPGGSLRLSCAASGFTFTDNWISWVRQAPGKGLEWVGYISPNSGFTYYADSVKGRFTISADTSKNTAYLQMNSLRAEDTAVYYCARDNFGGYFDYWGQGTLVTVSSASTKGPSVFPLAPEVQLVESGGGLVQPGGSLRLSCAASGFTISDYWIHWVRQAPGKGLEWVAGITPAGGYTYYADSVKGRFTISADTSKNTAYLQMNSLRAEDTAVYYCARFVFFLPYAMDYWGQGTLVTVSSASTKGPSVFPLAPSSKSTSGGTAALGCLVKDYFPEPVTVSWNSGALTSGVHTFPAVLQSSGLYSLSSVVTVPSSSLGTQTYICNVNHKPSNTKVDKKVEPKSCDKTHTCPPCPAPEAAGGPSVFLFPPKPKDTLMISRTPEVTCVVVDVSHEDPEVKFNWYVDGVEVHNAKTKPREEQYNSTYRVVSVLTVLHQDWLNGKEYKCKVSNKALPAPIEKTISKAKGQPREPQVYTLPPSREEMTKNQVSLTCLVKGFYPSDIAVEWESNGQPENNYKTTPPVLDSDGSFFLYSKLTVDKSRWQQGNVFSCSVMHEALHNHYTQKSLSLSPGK
light: DIQMTQSPSSLSASVGDRVTITCRASQDVSTAVAWYQQKPGKAPKLLIYSASFLYSGVPSRFSGSGSGTDFTLTISSLQPEDFATTYYCQQSYTGTVTFGQGTKVEIKRTVAAPDIQMTQSPSSLSASVGDRVTITCRASQDVSTAVAWYQQKPGKAPKLLIYSASFLYSGVPSRFSGSGSGTDFTLTISSLQPEDFATYYCQQSYTTPPTFGQGTKVEIKRTVAAPSVFIFPPSDEQLKSGTASVVCLLNNFYPREAKVQWKVDNALQSGNSQESVTEQDSKDSTYSLSSTLTLSKADYEKHKVYACEVTHQGLSSPVTKSFNRGEC
notes: HC linker long, LC linker short; also called DVD-Ig DVD477

What follows are binders tested against T1, DLL4 ECD His tag (UniProt Q9NR61 27-529, limits assumed) (assay: SPR (Biacore), DVD-Ig captured, DLL4 as analyte).
T1 construct: extracellular domain; also called DLL ECD His tag

Binder | Kd [pM] | koff [s⁻¹] | kon [M⁻¹ s⁻¹]
B1 | 4110 | 0.000596 | 145000
B2 | 4810 | 0.000584 | 121000
B3 | 672 | 0.000252 | 376000
B4 | 334 | 0.000139 | 416000
B5 | 205 | 0.000164 | 797000
B6 | 306 | 0.000165 | 540000
